{
  "source": "patent US7217686B1",
  "about": "“DNA sequence encoding oncofetal ferritin protein” (Gardino Investment N.V., priority 1999, dated 2007)",
  "molecules": {"B1": {"name": "OFF1: oncofetal ferritin 1 protein, purified from term placenta, termed also p43 (placental isoferritin, PLF) (protein)", "chain": "MTTASTSQVRQNYHQDSEAAINRQINLELYASYVYLSMSYYFDRDDVALKNFAKYFLHQSHEEREHAEKLMKLQNQRGGRIFLQDIKKPDCDDWESGLNAMECALHLEKNVNQSLLEFPSPISPSPSCWHHYTTNRPQPQHHLLRPRRRKRPHSIPTPILIFRSP", "modifications": "left off: a dimerising Fc or GST"}},
  "key": {"[1]": {"tested_on": "splenocytes from Balb/c mice transplanted with C57Bl bone marrow", "assay": "MLR of splenocytes from bone marrow transplanted Balb/c mice against alloantigens", "type": "cell-based", "source_text": "(§1) Immunologic assay: Splenocytes from bone marrow transplanted (BMT) Balb/c mice were reacted as above in MLR against the donor C57Bl splenocytes or against non-related splenocytes, to measure their immunoresponsiveness to the corresponding alloantigens.\nSplenocytes obtained from Balb/c mice (K^b) treated with BMT+PBS (control) and with BMT+OFF1 were used as responder cells (R) and were reacted with C57Bl (K^b) splenocytes as stimulator cells (S) in MLR."}, "[2]": {"tested_on": "C57Bl Donor lymphocytes in transplanted Balb/c mice", "assay": "Bone marrow transplantation C57Bl into Balb/c, flow cytometry for donor K^b positive cells", "type": "in vivo", "settings": "Balb/c BMT treated with OFF1 (ex vivo 1 μg/ml, 10 μg i.p. for 14 days); 6 weeks post transplantation; results not shown", "source_text": "Animals: C57BL/6 (H2^b) and BALB/c (H2^d) mice were purchased from Harlane. Donors and recipients were 8–10 wk of age at the time of BMT. All mice were housed in a specific pathogen-free facility in microisolator cages.\nEx-vivo induction of anergy in mixed lymphocyte reaction (MLR): C57Bl donor bone marrow (responder) was harvested 2 days before transplantation. Balb/c recipient (stimulator) spleen cells were irradiated at a midplane dose of 3300 cGy. The cells were resuspended in RPMI-1640 medium with 5% mouse serum to 4×10^6/ml and incubated with 1 μg/ml of OFF1 for 30 min.\nThe erythrocyte depleted mononuclear cell fraction of the marrow was resuspended at a concentration of 4×10^6/ml in the above medium in a Donor:Recipient ratio of 1:1. The cells were cultured in tissue culture flasks for 36 hours at 37° C. in 5% CO2, washed and resuspended to 2×10^7 cells/1 ml in PBS containing OFF1 (1 μg/ml).\nBone marrow Transplantation (BMT): Balb/c recipients were sublethely irradiated by exposing mice to 5;5 GRAY total body irradiation from a ^137Cesium source at a dose rate of 85 cGY/min.\nDay 2 MLR cultured cells (10^7/0.5 ml) were injected intravenously to BALB/c mice pretreated with OFF1 ((10 μg) injected i.p.) (BMT+OFF1). […]\nAll results were obtained using FACS (Beckton Dickenson). […] 10,000 cells were analyzed for each determination."}, "[3]": {"tested_on": "human bone marrow progenitor CFU-GM", "assay": "CFU-GM colony assay with normal human bone marrow mononuclear cells", "type": "cell-based", "settings": "for number of CFU-GM colonies: scored after 14 days", "description": "Bone marrow samples from 11 healthy volunteer donors were processed by density gradient separation using […] (Sigma diagnostics, St. Louis, Mo., USA) to obtain a purified population of mononuclear cells. Colony assays were performed in a plating medium containing final concentrations of 0.92% methyl cellulose (M-281 powder, 4,000 centipoise, Fisher Scientific Co., Fair Lawn, N.J., USA), rehydrated in Iscove's modified Dulbecco's medium containing 36 mM sodium bicarbonate (Gibco, Grand Island, N.Y., USA), 30% fetal bovine serum (FBS) (HyClone, Logan, Utah, USA) 0.292 mg/ml glutamine, 100 U/ml penicillin and 0.01 mg/ml streptomycin (Biological Industries, Beit Haemek, Israel). Growth factors used were […] GM-CSF Leucomax (Sandoz Pharma) and 5% vol/vol human phytohemagglutinin-M (Difco Laboratories, Detroit, Mich., USA)-induced conditioned medium (Cond. Med.) p43 (PLF) was added at concentration of 1 μg/mL and in neutralization experiments, p43 (PLF) was preincubated with 10× excess of CM-H-9 MoAb at 37° C. for 30 min and the complex added to the assay as above. The colony assay medium contained 10^5 mononuclear cells/ml and each 1 ml was plated into triplicate wells (333 μl/well) of a 24 well tissue culture plate (Greiner, Germany). Water was added to spaces between cells to maximize humidity during incubation of the cultures. The cultures were incubated at 37° C. in 5% CO2 and 55% relative humidity. Plates were scored after 14 days for colonies containing more than 50 cells."}, "[4]": {"tested_on": "splenocytes from Balb/c mice transplanted with C57Bl bone marrow", "assay": "In-vitro OFF1 treatment of splenocytes from transplanted Balb/c mice in MLR", "type": "cell-based", "source_text": "as §1\nIn further experiments we tested the in-vitro effect of OFF1 treatment on responsiveness of splenocytes from control BMT+PBS against both donor C57Bl stimulators and against ICR stimulators."}, "[5]": {"settings": "11 donors, Cond. Med. 5% vol/vol, p43 (PLF) 1 μg/ml, GM-CSF 15 ng/ml"}},
  "note": "Values joined by “and” are separate entries in the source; they are usually repeats but may differ in a detail not shown here. Equal values may be shown once.",
  "data": [
    {"molecule": "B1", "values": [
      {"measurement": "P.I. (Proliferation Index), BMT + OFF1, in-vitro treatment None", "setting": "[1]; Stimulator C57Bl", "value": 1.3},
      {"measurement": "P.I. (Proliferation Index), BMT + OFF1", "setting": "[1]; Stimulator C57Bl, S/R Ratio 0", "value": 1},
      {"measurement": "P.I. (Proliferation Index), BMT + OFF1", "setting": "[1]; Stimulator C57Bl, S/R Ratio 0.2", "value": 1.3},
      {"measurement": "P.I. (Proliferation Index), BMT + OFF1", "setting": "[1]; Stimulator C57Bl, S/R Ratio 1", "value": 1},
      {"measurement": "P.I. (Proliferation Index), BMT + OFF1", "setting": "[1]; Stimulator C57Bl, S/R Ratio 4", "value": 1.1},
      {"measurement": "P.I. (Proliferation Index), BMT + OFF1, in-vitro treatment None", "setting": "[1]; Stimulator ICR", "value": 9.6},
      {"measurement": "P.I. (Proliferation Index), BMT + OFF1", "setting": "[1]; Stimulator ICR, S/R Ratio 0", "value": 1},
      {"measurement": "P.I. (Proliferation Index), BMT + OFF1", "setting": "[1]; Stimulator ICR, S/R Ratio 0.2", "value": 1.8},
      {"measurement": "P.I. (Proliferation Index), BMT + OFF1", "setting": "[1]; Stimulator ICR, S/R Ratio 1", "value": 2.6},
      {"measurement": "P.I. (Proliferation Index), BMT + OFF1", "setting": "[1]; Stimulator ICR, S/R Ratio 4", "value": 9.6},
      {"measurement": "response of splenocytes of BMT+OFF1 chimeric mice to donor C57Bl stimulators in MLR", "setting": "[1]; any S/R ratios", "value": "completely anergic"},
      {"measurement": "K^b positive donor cells in bone marrow and spleen", "setting": "[2]", "value": "development of hematopoietic chimerism"},
      {"measurement": "MEDIAN number of CFU-GM colonies", "setting": "[3]; [5]", "value": 94},
      {"measurement": "RANGE of number of CFU-GM colonies", "setting": "[3]; [5]", "value": "0–748"},
      {"measurement": "mean number of CFU-GM colonies (AVG.)", "setting": "[3]; [5]", "value": "169+/−216 and 169"},
      {"measurement": "number of CFU-GM colonies", "setting": "[3]; Bone Marrow No. 1, Cond. Med. 5% vol/vol, p43 (PLF) 1 μg/ml, GM-CSF 15 ng/ml", "value": 280},
      {"measurement": "number of CFU-GM colonies", "setting": "[3]; Bone Marrow No. 2, Cond. Med. 5% vol/vol, p43 (PLF) 1 μg/ml, GM-CSF 15 ng/ml", "value": 748},
      {"measurement": "number of CFU-GM colonies", "setting": "[3]; Bone Marrow No. 3, Cond. Med. 5% vol/vol, p43 (PLF) 1 μg/ml, GM-CSF 15 ng/ml", "value": 152},
      {"measurement": "number of CFU-GM colonies", "setting": "[3]; Bone Marrow No. 4, Cond. Med. 5% vol/vol, p43 (PLF) 1 μg/ml, GM-CSF 15 ng/ml", "value": 28},
      {"measurement": "number of CFU-GM colonies", "setting": "[3]; Bone Marrow No. 5, Cond. Med. 5% vol/vol, p43 (PLF) 1 μg/ml, GM-CSF 15 ng/ml", "value": 94},
      {"measurement": "number of CFU-GM colonies", "setting": "[3]; Bone Marrow No. 6, Cond. Med. 5% vol/vol, p43 (PLF) 1 μg/ml, GM-CSF 15 ng/ml", "value": 6},
      {"measurement": "number of CFU-GM colonies", "setting": "[3]; Bone Marrow No. 7, Cond. Med. 5% vol/vol, p43 (PLF) 1 μg/ml, GM-CSF 15 ng/ml", "value": 0},
      {"measurement": "number of CFU-GM colonies", "setting": "[3]; Bone Marrow No. 8, Cond. Med. 5% vol/vol, p43 (PLF) 1 μg/ml, GM-CSF 15 ng/ml", "value": 242},
      {"measurement": "number of CFU-GM colonies", "setting": "[3]; Bone Marrow No. 9, Cond. Med. 5% vol/vol, p43 (PLF) 1 μg/ml, GM-CSF 15 ng/ml", "value": 8},
      {"measurement": "number of CFU-GM colonies", "setting": "[3]; Bone Marrow No. 10, Cond. Med. 5% vol/vol, p43 (PLF) 1 μg/ml, GM-CSF 15 ng/ml", "value": 210},
      {"measurement": "number of CFU-GM colonies", "setting": "[3]; Bone Marrow No. 11, Cond. Med. 5% vol/vol, p43 (PLF) 1 μg/ml, GM-CSF 15 ng/ml", "value": 94},
      {"measurement": "concentration giving the highest number of CFU-GM colonies", "setting": "[3]; dose response, bone marrow progenitor cells from three donors (FIG. 10)", "value": 1, "unit": "μg/1 mL"},
      {"measurement": "Mean CFU-GM following preincubation with MoAb CM-H9", "setting": "[3]; p43 (PLF) 1 μg/mL preincubated with 10× excess of CM-H-9 MoAb at 37° C. for 30 min", "value": "7+/−10"},
      {"measurement": "P.I. (Proliferation Index), BMT + OFF1, in-vitro treatment OFF1", "setting": "[4]; Stimulator C57Bl", "value": 1.3},
      {"measurement": "P.I. (Proliferation Index), BMT + PBS, in-vitro treatment OFF1", "setting": "[4]; Stimulator C57Bl", "value": 1},
      {"measurement": "P.I. (Proliferation Index), BMT + OFF1, in-vitro treatment OFF1", "setting": "[4]; Stimulator ICR", "value": 4.7},
      {"measurement": "P.I. (Proliferation Index), BMT + PBS, in-vitro treatment OFF1", "setting": "[4]; Stimulator ICR", "value": 3.5}
    ]}
  ]
}
